Consider one molecule from article PMC8042168, “The cell surface hyaluronidase TMEM2 regulates cell adhesion and migration via degradation of hyaluronan at focal adhesion sites” (The Journal of Biological Chemistry, 2021).

The test has as its target T1, recombinant human α5β1 ECD heterodimer (human, UniProt P08648 42-995; P05556 21-728).
T1 construct: integrin α5, human, extracellular domain; integrin β1, human, extracellular domain; also called recombinant heterodimer of integrin ECD (α5β1); source: bought: R&D Systems (3230-A5-050)
In words: pull-down; TMEM2–ECD-His6 (about 5 μg/20 μl) held on ProBond nickel chelating resin; 2 μg recombinant integrin ECD heterodimer incubated in HBSS++ overnight at 4 °C; control unbound resin; blots. As to conditions: both partners purified.

T1 sequence (P08648 42-995, chain 1 of 2): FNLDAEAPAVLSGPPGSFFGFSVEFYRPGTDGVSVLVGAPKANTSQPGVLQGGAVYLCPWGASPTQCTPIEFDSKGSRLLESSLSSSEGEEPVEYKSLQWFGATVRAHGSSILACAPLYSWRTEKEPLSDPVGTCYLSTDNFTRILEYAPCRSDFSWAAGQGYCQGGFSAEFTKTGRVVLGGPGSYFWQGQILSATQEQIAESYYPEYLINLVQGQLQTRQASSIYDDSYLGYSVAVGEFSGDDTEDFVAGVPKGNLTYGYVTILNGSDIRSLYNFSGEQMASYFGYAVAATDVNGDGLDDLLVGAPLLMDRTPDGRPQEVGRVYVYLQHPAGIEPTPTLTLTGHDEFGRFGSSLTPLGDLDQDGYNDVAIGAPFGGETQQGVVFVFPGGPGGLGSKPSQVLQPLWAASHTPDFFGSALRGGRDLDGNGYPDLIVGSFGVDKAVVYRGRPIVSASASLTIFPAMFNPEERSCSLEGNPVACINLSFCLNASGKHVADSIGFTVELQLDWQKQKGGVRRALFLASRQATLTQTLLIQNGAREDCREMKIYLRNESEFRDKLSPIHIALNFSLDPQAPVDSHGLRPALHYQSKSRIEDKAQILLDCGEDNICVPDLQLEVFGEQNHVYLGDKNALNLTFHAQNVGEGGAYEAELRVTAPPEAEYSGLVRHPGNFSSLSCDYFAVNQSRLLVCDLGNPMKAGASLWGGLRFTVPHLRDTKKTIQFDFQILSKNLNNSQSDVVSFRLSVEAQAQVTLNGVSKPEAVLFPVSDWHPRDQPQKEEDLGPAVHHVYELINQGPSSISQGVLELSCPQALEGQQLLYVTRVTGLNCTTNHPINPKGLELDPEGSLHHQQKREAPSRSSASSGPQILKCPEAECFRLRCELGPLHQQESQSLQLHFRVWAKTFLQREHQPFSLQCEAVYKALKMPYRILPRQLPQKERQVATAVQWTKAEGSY
T1 sequence (P05556 21-728, chain 2 of 2): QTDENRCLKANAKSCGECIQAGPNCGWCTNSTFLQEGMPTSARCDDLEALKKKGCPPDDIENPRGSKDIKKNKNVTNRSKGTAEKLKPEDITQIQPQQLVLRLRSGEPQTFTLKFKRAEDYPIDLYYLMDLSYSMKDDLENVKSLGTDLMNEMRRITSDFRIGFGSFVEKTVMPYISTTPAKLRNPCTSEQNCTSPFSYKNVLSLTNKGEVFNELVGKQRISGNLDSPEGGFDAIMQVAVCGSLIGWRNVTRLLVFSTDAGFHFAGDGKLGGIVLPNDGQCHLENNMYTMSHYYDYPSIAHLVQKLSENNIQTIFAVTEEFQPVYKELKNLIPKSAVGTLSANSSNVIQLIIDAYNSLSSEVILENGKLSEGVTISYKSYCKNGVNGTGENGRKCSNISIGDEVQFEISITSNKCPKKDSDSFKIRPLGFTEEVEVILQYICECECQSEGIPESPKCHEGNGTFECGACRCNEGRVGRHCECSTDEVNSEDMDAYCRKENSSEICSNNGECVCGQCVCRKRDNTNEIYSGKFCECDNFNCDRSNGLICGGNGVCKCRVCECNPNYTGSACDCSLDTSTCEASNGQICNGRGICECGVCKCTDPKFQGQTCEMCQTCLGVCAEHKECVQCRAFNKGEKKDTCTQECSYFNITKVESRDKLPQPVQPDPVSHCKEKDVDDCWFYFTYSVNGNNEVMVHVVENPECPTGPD

B1: recombinant soluble TMEM2 extracellular domain, 6x His-tagged (domain or fragment, mouse, UniProt Q5FWI3 104-1383, looked up)
chain: SSKYAPDENCPDQNPRLRNWDPGQDSAKHIVIKEGDLFRLTSDATVDSIVIQDGGLLVFGDDKDGSKNITLRTRYILIQDGGALHIGAEKCRYRSKATITLYGKSDERESMPIFGKKFIGVEAGGTLELHGAQRTSWTMLARTLHSSGLPFGSYAFEKDFSRGLNVRVIDQDTARVLENEKFDTHEYHNESRRLQEFLRAQEPGRIVAIAVGDSAVKSLLQGTIQMIQDRLGSKLIQGLGYRQAWALVGVIDGGSSSCNESVRNYENHSTGGKALAQGEFYTLDGQKFSVTAYSEWSQGISLSGFRVDIADGVKLHLLDDVSTWEAGDRIVVASTDYSMYQAEELTLLRCPECSRSQVKVKEIPQYLHVGEIIDGIDMRAEVGLLTRNIVIQGEMEDSCYAENHCQFFDYDTFGGHVMIEKNFTSVHLSYVELKHMGQQHMGRYPVHFHLCGDVDSKGGYSQPASVDGLSVHHSFSRCITVHGTSGLLIKDTIGFDTLGHCFFLEDGVEQRNILYHNLGLLTKPGTLLPTDRNSSMCTVMRDGVFGNYVPVPTTDCMAVSTFWIAHPNNHLINNAAAGSQDAGIWYLFHKEPTGESSGLQLLEKPELTPLGIFYNNRVHSNFKAGLFVDKGVKTTNASASDPREYLCLDNSARFRPHQDADPEKPRVAAIIDRLIAFKNNDNGAWVRGGDIIVQNSAFADNGKGLTFASDGSFPSDEGSSQEVTESLFVGESRNYGFQGGQNKYMGTGGIDQKPRTLPRNRTFPIRGFQIYDGPIHLTKSTFKKYVPTPDRYSSAIGFLMKNSWQTTPRNNVSLVKFGPQVSLNVFFGKPGPWFEDCELDGDKNSIFHDIDGSVTGYKDTYVGRMDNYLIRHPNCVNVTKWNAVICSGTYAQVYVQTWNTPNLSMIITRDEYPSHPMVLRGINQRAISPQYQPVVMLEKGYTIHWNGPAPRTTFLYLVNFNKDDWIRVGLCYPANTSFQVTVGFLQRQNGSLSRIEDYEPARSMEELQKKPSERKFYFDSGTGLLFLYLRAHSHRDGHSYCSSQGCERVKIQAATDSKDISNCMAKAYPQYYKKPSAVKRMPAMLTGLCQGCGTHQMVFTSDPHKSYLPVRFQSPGKAEIQRGDPSIISVNGTDFTFRSAGALLLIVDACSVPFRVKEKRMFLSADVSHMEEYFKASIPPRSIVLLSTRGEIKQLNISDSLAVLGLAKPAHLYSKGSVVFLGFSGNFAPSWTKLFTSPDEQGLGVLEQFLPLQMEEYGCSRTGSVHRRDLDLLQQALKVL
notes: transmembrane protein 2 (TMEM2; CEMIP2), mouse, extracellular domain Ser104–Leu1383; in pSecTag2A with the C-terminal Myc peptide removed; the vector supplies a secretion leader (surmised); also called TMEM2 ECD; TMEM2–ECD; not shown: His6, C-terminal, kept
B1: the binding result is recorded as “binds”.
